The values that follow come from patent US20180306795A1 (CIZZLE BIOTECHNOLOGY, published 2018).

The target of assay [1] is T1, human fibrinogen alpha chain (carrier protein in human plasma) (human, UniProt P02671-2 20-629).
T1 construct: mature; This is the carrier protein of normal plasma that runs at about 65-70 kDa in reducing SDS-PAGE; also called Uniprot P02671
T1 sequence (looked up): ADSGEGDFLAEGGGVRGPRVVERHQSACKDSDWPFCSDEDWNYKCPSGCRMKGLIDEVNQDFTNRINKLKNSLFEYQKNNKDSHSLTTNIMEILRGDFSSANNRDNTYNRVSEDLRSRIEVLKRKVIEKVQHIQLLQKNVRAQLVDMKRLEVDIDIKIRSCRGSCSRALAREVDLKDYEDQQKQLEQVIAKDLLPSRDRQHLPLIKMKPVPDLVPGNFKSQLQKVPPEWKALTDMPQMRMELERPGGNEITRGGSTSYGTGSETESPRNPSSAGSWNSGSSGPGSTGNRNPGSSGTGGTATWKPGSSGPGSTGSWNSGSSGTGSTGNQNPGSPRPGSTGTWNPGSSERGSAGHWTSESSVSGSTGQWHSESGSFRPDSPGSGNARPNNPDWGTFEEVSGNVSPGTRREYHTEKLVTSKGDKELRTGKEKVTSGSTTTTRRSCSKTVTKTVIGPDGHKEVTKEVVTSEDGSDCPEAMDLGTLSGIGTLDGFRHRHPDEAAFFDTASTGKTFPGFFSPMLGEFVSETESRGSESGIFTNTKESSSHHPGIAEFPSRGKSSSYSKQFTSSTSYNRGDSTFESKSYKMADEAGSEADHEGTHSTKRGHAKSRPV
In words: peptide incubated with normal human plasma, western blot (FIG. 10C). The protocol:
(§1) Band identity was verified by ponceau S stain followed by Western blot with anti-CIZ1b antibody 043 of a parallel gel (right). B) Gel slices were soaked in 2% SDS-PAGE loading buffer (with 200 mM βME) and separated through a denaturing gel to recover the 043-reactive species at 70 kDa. Note that sample loaded as a gel slice is slightly retardation compared to markers which are loaded in solution. […] C) Western blot of normal human plasma (non-cancer, N) showing reconstitution of CIZ1b epitope via complex formation between a carrier protein in plasma and synthetic CIZ1b peptides of the indicated lengths, but not equivalent CIZ1a peptide (Table 2). Note that free peptides migrate in reducing SDS-PAGE with a relative mobility 3 times expected (˜21 kDa instead of 7.6 kDa for b66, ˜5 kDa instead of 1.6 for b13). None are recognized by CIZ1b antibodies in western blot unless complexed with carrier protein. For CIZ1b66 peptide a new reactive species is created at ˜80 kDa, while CIZ1b13 peptide increases antigenicity at the same mobility as the endogenous epitope in lung cancer plasmas (C, lane 1). D) Western blot of non-reducing SDS-PAGE gel showing purified fibrinogen (6 nmols) in all lanes (upper), with and without prior incubation with 100 pmols of the indicated peptides (Table 2), probed with CIZ1b antibodies as indicated. […]
On the technique in general: In western blotting, separated proteins are transferred to a membrane and probed.

The target of assay [2] is T1, human fibrinogen alpha chain (carrier …). The experiment in a line: peptide incubated with normal human plasma, reducing SDS-PAGE, western blot with 2B and 043. The protocol: as §1
For assay [3] the target is unchanged. The experiment in a line: 50 nmols peptide mixed with 0.5 ul non-cancer plasma, western blot. On the procedure: FIG. 3—Ciz1 b-variant ˜65-70 kDa species is a Ciz1 b-variant peptide stably bound to a carrier protein, which may augment antigenicity of Ciz1 b-variant peptide. a) Western blot illustrating cancer-selective epitope recognised by anti-Ciz1 b-variant antibody 2B, as described previously (Higgins et al; as above). b) Reconstitution of a Ciz1 b-variant epitope from synthetic b-variant peptide (50 nmols of […] DFLV—SEQ ID NO: 12) mixed with 0.5 ul of non-cancer plasma. Free peptide migrates with mobility indicative of a MW 3-4× greater than predicted (˜30 kDa instead of 7.6 kDa), indicated by blue arrow. When incubated in plasma mobility decreases, antigenicity increases, and a new species is created at ˜80 kDa, indicated by red arrow. c) Similar results were generated with a separate anti-Ciz1 b-variant monoclonal antibody. d) For reference, a duplicate blot is probed with a monoclonal antibody that is selective for the exon 14a version of the peptide ([…]—SEQ ID NO: 13), showing detection of the peptide in lanes 1 and 3. Key: Lane 1, WT peptide only. Lane 2, B-var peptide only. Lane 3, WT peptide+normal plasma. Lane 4, B-var peptide+normal plasma. Lane 5, normal plasma only. […] F) Western blot showing titration of short peptide ([…]—SEQ ID NO: 2) into cancer patient plasma, detected with anti-Ciz1 b-variant monoclonal antibody (upper) or anti-Ciz1 b-variant polyclonal antibody 043 (lower).

Assay [4] has the same target. The experiment in a line: peptide combined with plasma, western blot.

No end group written: not given here.

B1: Long CIZ1b peptide (b66) (peptide)
peptide: EIAGQDEDHFITVDAVGCFEGDEEEEEDDEDEEEIEVRSRDISREEWKGSETYSPNTAYGVDFLVP
notes: also called CIZ1b66
Regarding B1, the binding result in assay [1] is “binds”. Turning to CDEEEIEVRSRDIS-NH2 (also called CIZ1b13) [Short CIZ1b peptide (b13)], in assay [2], the binding result is “binds”.

B2: Long Ciz1 b-variant peptide (SEQ ID NO: 12) (peptide)
peptide: EIAGQDEDHFITVDAVGCFEGDEEEEEDDEDEEEIEVRSRDISREEWKGSETYSPNTAYGVDFLV
notes: also called synthetic b-variant peptide; B-var peptide
As for B2, the binding result in assay [3] is recorded as “binds”.

B3: Short Ciz1 b-variant peptide DEEEIEVRSRDIS (peptide)
peptide: DEEEIEVRSRDIS
notes: also called short b-variant peptide; short peptide
As to B3, the binding result in assay [4] was “binds”.
